Like-named read-outs stand apart in the source and are kept apart here.
Columns and labels:
[1] = Fluorescence increase, phosphopeptide vs unphosphorylated peptide at 485 nm; format: physicochemical; details: phosphopeptide / unphosphorylated peptide intensity at 485 nm, generally 10 mM Mg2+
Description: (§1) Fluorescence experiments were performed on a Fluoromax 3 from Jobin Yvon. 5 nm emission and excitation slit widths were used. For all experiments, an excitation wavelength of 360 nm was used. Enzyme assays were performed by monitoring emission at 485 nm.
After peptide characterization, emission spectra were obtained for unphosphorylated and phosphorylated peptides under appropriate conditions. The spectra were generally acquired in the presence of 10 mM Mg^2+(although lower Mg^2+concentrations can and have been used as well) and either 0, 0.1 or 1 mM ATP in a preselected buffer (usually 20 mM HEPES, pH 7.4). Relying on the emission spectra the fold fluorescence differences were measured by dividing the fluorescence intensity of the phosphopeptide by the fluorescence intensity of its unphosphorylated counterpart at 485 nm. FIG. 2 depicts the fluorescence spectra of the phosphorylated and unphosphorylated peptides in the appropriate assay mixture: (A) emissions scans of PKCβI-1 (10 μM), 10 mM Mg(II), 3×; (B) emissions scans of PKCβI-1 (10 μM), 10 mM Mg(II), 0 mM ATP, 3×.; (C) fluorescence difference for PKCβI-1 (10 μM), 10 mM Mg(II), 3×; (D) fluorescence increase for PKCβI-1 (10 μM) at 10 mM Mg (II).

[2] = target: T1, PKCα (Homo sapiens, UniProt P17252); assay: Kinetic parameters of the peptides with PKCα (continuous fluorescence assay); format: biochemical; details: for Km / Vmax: with PKCα
From the text: To solve for enzyme kinetic parameters for this reaction, determination of the initial rate of product formation from the increase in fluorescence intensity is necessary. With this sensor, a correction for the decrease in fluorescence intensity due to the starting material being consumed is needed to determine the rate of product formation from the initial slope. The fluorescence intensity at any given point can be determined from the following equation: I(t)=fSs(t)+fPP(t) (1) where I(t) is the fluorescence intensity, S(t) is the amount of substrate in μM, P(t) is the amount of product in μM, fS is the fluorescence intensity per μM of substrate, and fP is fluorescence intensity per μM of product. The amount of substrate and product at any given point are related by: S(t)+P(t)=S0 (2) where S0 is the initial amount of substrate. Substitution of (2) into (1) followed by rearrangement, yields:
[formula] The initial slope of the reaction, dI(t)/dt, was measured within the first 5% of substrate turnover. The constants fP and fS were calculated from the slope of a line of fluorescence intensity versus concentration of P and S, respectively. A linear fit of a Hanes plot ([S]/V vs. […]) was used to find Km and Vmax.
For in vitro applications, the concentration of kinase can range from about 0.5 nM to about 1 μM, typically not more than about 500 nM, and preferably not more than about 250 nM. The concentrations of sensor can vary, but usually ranges between about 0.01 μM to 0.1 mM. Adenosine 5′-triphosphate (ATP) is the preferred source of phosphate, in stock solutions of about 10-100 mM. Because most kinases have Km values for ATP in the range of about 10-150 μM, saturating concentrations of ATP are used to arrive at values of Km and Vmax for the substrates. For in vivo applications, when the sensor is internalized into a cell, sufficient kinases, Mg^2+ and phosphate sources exist in the cytosol. For in vivo sensing, a cellular internalization sequence can be included in the sensor design. Suitable cellular internalization sequences include Penetratins, HIV-Tat domains and poly-arginine sequences (Lindgren, M. et al. Trends Pharmacol. Sci. 2000, 21, 99-103; Wadia, J. S. et al. Curr Opin. Biotech. 2002, 13, 52-56; Carrigan, C. N. Analyt. Biochem. 2005, 341, 290-298).
For applications in which the kinase is dependent on cofactors, a source of cofactor is also included in the sample. For example, for PKC, sources of Ca^2+, phospholipid and diacylglycerol are needed.
as §1

[3] = system: PKC isozymes present in cells; assay: Use of sensor in cell lysates
From the text: In comparison, the chemosensors with the extended recognition domain as disclosed in the present invention for PKCα, PKCα-S9 and PKCα-S10, also have good biophysical properties (Table IV).

[4] = target: T1, PKCα; details: optimal PKCα peptide substrate selected from the literature; cited from earlier work

selectivity for PKCα ([2]; as determined by kinetic parameters, compared with PKCα-S1)	Km [2] [µM]	Vmax [2] [µmol/min/mg]	Substance	Fluorescence Increase [1] [x]	reactivity in cell lysates [3]	Km [4] [µM]
much more selective for PKCα	0.093 ± 0.017	1.8 ± 0.12	Ac-R R R-C(Sox)-G-(p)S F R R K A-NH2 [PKCα-S9(P9)]	3.5		
	8.6 ± 2.9	5.9 ± 1.9	Ac-Sox-P-G-(p)S F R R R-NH2 [PKCα-S1(P1), reference compound]	5.7	reactive toward many of the PKC isozymes	
			RRRKGS*FRRKA (RRRKGSFRRKA) [optimal PKCα peptide substrate selected from the literature]			3.8
